# Results from patent US9284543B2, “Neutral active soluble truncated PH20 polypeptides and uses thereof” (Halozyme, Inc., priority 2008, dated 2016).
# What was measured:
# [1] = Microtiter hyaluronidase activity assay with biotinylated-hyaluronic acid; type: biochemical; details: Table 6, 72 hour post transfection supernatant
# CHO-S cells = assay: Western blot analysis of PH20 expression in media and cells after transient expression; type: cell-based, Chinese Hamster; details: media versus cells
# Procedure, shortened: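 PH20 expression and solubility were judged by anti-PH20 Western blot of non-reduced media and cell fractions, with expression shown by a ~66 kDa band. Samples came from CHO-S cells transiently transfected (GeneJuice) with mutant PH20-HZ24 DNA and cultured 48-72 h. GPI-anchored mutants were cleaved with PI-PLC to release soluble protein.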
Molecule,pH 5.5 Activity [1] [Units/ml],pH 7.4 Activity [1] [Units/ml],Expressed in Media (CHO-S cells)
"SPAM1-METE: C-terminally truncated human PH20, precursor 476 aa (SEQ ID NO:24), mature 441 aa (SEQ ID NO:76) (protein, listed as Homo sapiens, HuPH20 precursor 1-476; Mature HuPH20 36-476) chain 1: MGVLKFKHIFFRSFVKSSGVSQIVFTFLLIPCCLTLNFRAPPVIPNVPFLWAWNAPSEFCLGKFDEPLDMSLFSFIGSPRINATGQGVTIFYVDRLGYYPYIDSITGVTVNGGIPQKISLQDHLDKAKKDITFYMPVDNLGMAVIDWEEWRPTWARNWKPKDVYKNRSIELVQQQNVQLSLTEATEKAKQEFEKAGKDFLVETIKLGKLLRPNHLWGYYLFPDCYNHHYKKPGYNGSCFNVEIKRNDDLSWLWNESTALYPSIYLNTQQSPVAATLYVRNRVREAIRVSKIPDAKSPLPVFAYTRIVFTDQVLKFLSQDELVYTFGETVALGASGIVIWGTLSIMRSMKSCLLLDNYMETILNPYIINVTLAAKMCSQVLCQEQGVCIRKNWNSSDYLHLNPDNFAIQLEKGGKFTVRGKPTLEDLEQFSEKFYCSCYSTLSCKEKADVKDTDAVDVCIADGVCIDAFLKPPMETE chain 2: LNFRAPPVIPNVPFLWAWNAPSEFCLGKFDEPLDMSLFSFIGSPRINATGQGVTIFYVDRLGYYPYIDSITGVTVNGGIPQKISLQDHLDKAKKDITFYMPVDNLGMAVIDWEEWRPTWARNWKPKDVYKNRSIELVQQQNVQLSLTEATEKAKQEFEKAGKDFLVETIKLGKLLRPNHLWGYYLFPDCYNHHYKKPGYNGSCFNVEIKRNDDLSWLWNESTALYPSIYLNTQQSPVAATLYVRNRVREAIRVSKIPDAKSPLPVFAYTRIVFTDQVLKFLSQDELVYTFGETVALGASGIVIWGTLSIMRSMKSCLLLDNYMETILNPYIINVTLAAKMCSQVLCQEQGVCIRKNWNSSDYLHLNPDNFAIQLEKGGKFTVRGKPTLEDLEQFSEKFYCSCYSTLSCKEKADVKDTDAVDVCIADGVCIDAFLKPPMETE",1.278,1.332,YES
"SPAM1-LKPP: C-terminally truncated human PH20, precursor 472 aa (SEQ ID NO:28), mature 437 aa (SEQ ID NO:80) (protein, listed as Homo sapiens, HuPH20 precursor 1-472; Mature HuPH20 36-472) chain 1: MGVLKFKHIFFRSFVKSSGVSQIVFTFLLIPCCLTLNFRAPPVIPNVPFLWAWNAPSEFCLGKFDEPLDMSLFSFIGSPRINATGQGVTIFYVDRLGYYPYIDSITGVTVNGGIPQKISLQDHLDKAKKDITFYMPVDNLGMAVIDWEEWRPTWARNWKPKDVYKNRSIELVQQQNVQLSLTEATEKAKQEFEKAGKDFLVETIKLGKLLRPNHLWGYYLFPDCYNHHYKKPGYNGSCFNVEIKRNDDLSWLWNESTALYPSIYLNTQQSPVAATLYVRNRVREAIRVSKIPDAKSPLPVFAYTRIVFTDQVLKFLSQDELVYTFGETVALGASGIVIWGTLSIMRSMKSCLLLDNYMETILNPYIINVTLAAKMCSQVLCQEQGVCIRKNWNSSDYLHLNPDNFAIQLEKGGKFTVRGKPTLEDLEQFSEKFYCSCYSTLSCKEKADVKDTDAVDVCIADGVCIDAFLKPP chain 2: LNFRAPPVIPNVPFLWAWNAPSEFCLGKFDEPLDMSLFSFIGSPRINATGQGVTIFYVDRLGYYPYIDSITGVTVNGGIPQKISLQDHLDKAKKDITFYMPVDNLGMAVIDWEEWRPTWARNWKPKDVYKNRSIELVQQQNVQLSLTEATEKAKQEFEKAGKDFLVETIKLGKLLRPNHLWGYYLFPDCYNHHYKKPGYNGSCFNVEIKRNDDLSWLWNESTALYPSIYLNTQQSPVAATLYVRNRVREAIRVSKIPDAKSPLPVFAYTRIVFTDQVLKFLSQDELVYTFGETVALGASGIVIWGTLSIMRSMKSCLLLDNYMETILNPYIINVTLAAKMCSQVLCQEQGVCIRKNWNSSDYLHLNPDNFAIQLEKGGKFTVRGKPTLEDLEQFSEKFYCSCYSTLSCKEKADVKDTDAVDVCIADGVCIDAFLKPP",0.9,0.5445,YES
"SPAM1-PMET: C-terminally truncated human PH20, precursor 475 aa (SEQ ID NO:25), mature 440 aa (SEQ ID NO:77) (protein, listed as Homo sapiens, HuPH20 precursor 1-475; Mature HuPH20 36-475) chain 1: MGVLKFKHIFFRSFVKSSGVSQIVFTFLLIPCCLTLNFRAPPVIPNVPFLWAWNAPSEFCLGKFDEPLDMSLFSFIGSPRINATGQGVTIFYVDRLGYYPYIDSITGVTVNGGIPQKISLQDHLDKAKKDITFYMPVDNLGMAVIDWEEWRPTWARNWKPKDVYKNRSIELVQQQNVQLSLTEATEKAKQEFEKAGKDFLVETIKLGKLLRPNHLWGYYLFPDCYNHHYKKPGYNGSCFNVEIKRNDDLSWLWNESTALYPSIYLNTQQSPVAATLYVRNRVREAIRVSKIPDAKSPLPVFAYTRIVFTDQVLKFLSQDELVYTFGETVALGASGIVIWGTLSIMRSMKSCLLLDNYMETILNPYIINVTLAAKMCSQVLCQEQGVCIRKNWNSSDYLHLNPDNFAIQLEKGGKFTVRGKPTLEDLEQFSEKFYCSCYSTLSCKEKADVKDTDAVDVCIADGVCIDAFLKPPMET chain 2: LNFRAPPVIPNVPFLWAWNAPSEFCLGKFDEPLDMSLFSFIGSPRINATGQGVTIFYVDRLGYYPYIDSITGVTVNGGIPQKISLQDHLDKAKKDITFYMPVDNLGMAVIDWEEWRPTWARNWKPKDVYKNRSIELVQQQNVQLSLTEATEKAKQEFEKAGKDFLVETIKLGKLLRPNHLWGYYLFPDCYNHHYKKPGYNGSCFNVEIKRNDDLSWLWNESTALYPSIYLNTQQSPVAATLYVRNRVREAIRVSKIPDAKSPLPVFAYTRIVFTDQVLKFLSQDELVYTFGETVALGASGIVIWGTLSIMRSMKSCLLLDNYMETILNPYIINVTLAAKMCSQVLCQEQGVCIRKNWNSSDYLHLNPDNFAIQLEKGGKFTVRGKPTLEDLEQFSEKFYCSCYSTLSCKEKADVKDTDAVDVCIADGVCIDAFLKPPMET",2.0925,2.223,YES
"SPAM1-PPME: C-terminally truncated human PH20, precursor 474 aa (SEQ ID NO:26), mature 439 aa (SEQ ID NO:78) (protein, listed as Homo sapiens, HuPH20 precursor 1-474; Mature HuPH20 36-474) chain 1: MGVLKFKHIFFRSFVKSSGVSQIVFTFLLIPCCLTLNFRAPPVIPNVPFLWAWNAPSEFCLGKFDEPLDMSLFSFIGSPRINATGQGVTIFYVDRLGYYPYIDSITGVTVNGGIPQKISLQDHLDKAKKDITFYMPVDNLGMAVIDWEEWRPTWARNWKPKDVYKNRSIELVQQQNVQLSLTEATEKAKQEFEKAGKDFLVETIKLGKLLRPNHLWGYYLFPDCYNHHYKKPGYNGSCFNVEIKRNDDLSWLWNESTALYPSIYLNTQQSPVAATLYVRNRVREAIRVSKIPDAKSPLPVFAYTRIVFTDQVLKFLSQDELVYTFGETVALGASGIVIWGTLSIMRSMKSCLLLDNYMETILNPYIINVTLAAKMCSQVLCQEQGVCIRKNWNSSDYLHLNPDNFAIQLEKGGKFTVRGKPTLEDLEQFSEKFYCSCYSTLSCKEKADVKDTDAVDVCIADGVCIDAFLKPPME chain 2: LNFRAPPVIPNVPFLWAWNAPSEFCLGKFDEPLDMSLFSFIGSPRINATGQGVTIFYVDRLGYYPYIDSITGVTVNGGIPQKISLQDHLDKAKKDITFYMPVDNLGMAVIDWEEWRPTWARNWKPKDVYKNRSIELVQQQNVQLSLTEATEKAKQEFEKAGKDFLVETIKLGKLLRPNHLWGYYLFPDCYNHHYKKPGYNGSCFNVEIKRNDDLSWLWNESTALYPSIYLNTQQSPVAATLYVRNRVREAIRVSKIPDAKSPLPVFAYTRIVFTDQVLKFLSQDELVYTFGETVALGASGIVIWGTLSIMRSMKSCLLLDNYMETILNPYIINVTLAAKMCSQVLCQEQGVCIRKNWNSSDYLHLNPDNFAIQLEKGGKFTVRGKPTLEDLEQFSEKFYCSCYSTLSCKEKADVKDTDAVDVCIADGVCIDAFLKPPME",1.341,1.2105,YES
"SPAM1-KPPM: C-terminally truncated human PH20, precursor 473 aa (SEQ ID NO:27), mature 438 aa (SEQ ID NO:79) (protein, listed as Homo sapiens, HuPH20 precursor 1-473; Mature HuPH20 36-473) chain 1: MGVLKFKHIFFRSFVKSSGVSQIVFTFLLIPCCLTLNFRAPPVIPNVPFLWAWNAPSEFCLGKFDEPLDMSLFSFIGSPRINATGQGVTIFYVDRLGYYPYIDSITGVTVNGGIPQKISLQDHLDKAKKDITFYMPVDNLGMAVIDWEEWRPTWARNWKPKDVYKNRSIELVQQQNVQLSLTEATEKAKQEFEKAGKDFLVETIKLGKLLRPNHLWGYYLFPDCYNHHYKKPGYNGSCFNVEIKRNDDLSWLWNESTALYPSIYLNTQQSPVAATLYVRNRVREAIRVSKIPDAKSPLPVFAYTRIVFTDQVLKFLSQDELVYTFGETVALGASGIVIWGTLSIMRSMKSCLLLDNYMETILNPYIINVTLAAKMCSQVLCQEQGVCIRKNWNSSDYLHLNPDNFAIQLEKGGKFTVRGKPTLEDLEQFSEKFYCSCYSTLSCKEKADVKDTDAVDVCIADGVCIDAFLKPPM chain 2: LNFRAPPVIPNVPFLWAWNAPSEFCLGKFDEPLDMSLFSFIGSPRINATGQGVTIFYVDRLGYYPYIDSITGVTVNGGIPQKISLQDHLDKAKKDITFYMPVDNLGMAVIDWEEWRPTWARNWKPKDVYKNRSIELVQQQNVQLSLTEATEKAKQEFEKAGKDFLVETIKLGKLLRPNHLWGYYLFPDCYNHHYKKPGYNGSCFNVEIKRNDDLSWLWNESTALYPSIYLNTQQSPVAATLYVRNRVREAIRVSKIPDAKSPLPVFAYTRIVFTDQVLKFLSQDELVYTFGETVALGASGIVIWGTLSIMRSMKSCLLLDNYMETILNPYIINVTLAAKMCSQVLCQEQGVCIRKNWNSSDYLHLNPDNFAIQLEKGGKFTVRGKPTLEDLEQFSEKFYCSCYSTLSCKEKADVKDTDAVDVCIADGVCIDAFLKPPM",0.9157,0.8595,YES
